assay: soluble fraction after stress (log2 fold change); higher = more stays soluble; pooled small domains, quantitative proteomics; settings: stress: 50 degC
Procedure, shortened: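 Quantitative proteomics served as the high-throughput read-out for pooled custom libraries of small protein domains. Each was stressed at 50°C. Aggregation propensity is expressed as the base-two log fold change in soluble protein after stress. A higher value means a larger share of the protein remains in solution.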

Sequence | soluble fraction (log2)
HMAGRKMMVMANNLSVRKSANSLSEKLADLSRGDTVEYISSTNGWNKVRYKGQIGYVSSYYLKDTGEEVE | -0.0409
HMISSKDIINDEDGARLGKIADVEIDVATGKILSVHVYRSFKLLHLFGNKDVVQIPWNKIMKIGSDVVIVE | -0.0123
HMNNPLLDKVYQLMKQNNITEEEIVRAVAMKGYFPDDMKLGDYPDDFIDGVLIGAWDQIKQFIINNISPFK | 0.0631
HMPAVTEQTKTNLRRAFWQLYEQKPIQKITVKQITDLAGYNRGTFYLYFKDVYDLLDDIENK | -0.704
HMEIYIDGNKYVGELRNGKPNGRGTITYTGDGSKYVGEWKNGKRYGRGKMAYTNGTTKEGVWKDDEFLYAT | 0.0597
HMESRLQAAIALRKAGEHEQSREALKILADEPALRAQALLNIAWSFDNQGHERDAEGYYLAAIE | -0.131
HMNSFGWESFVGEKGVTDTDLRPSGWIVIKDKRLFALTEGTFIEKGVSVEILSVEGNRIVVREIS | -0.249
HMSGIQNNFITRLKKVLAPTIGIAEEISDLLNISIDSAYRRIRGETDFTFEEIYIITRKHKISIDEIYG | -3.58
HMIGVIVDEVDPDSSLKSGDIITEVNREVILNIDDFVGLVEQIQKTGRSSLLLKILRDKKSLWVTIQFV | 0.0885
HMELNFEGFYRFVRDELNVDLNAYKEKQLKRRIATVMKSSGALTLEDYSRLIANDEVIRNKFLDYITI | -1.08
HMSIEIKTIDVKHADLFQLQDILRNLYPELNIVPDQRNNKLILQGKRELLVEAERLTLQLDTE | 0.0556
HMSHPNAPLTPEGRRRLAVLIVEDGWTIRRAAERFQVSPATASKWARRYRAGESLTDRSSRP | -1.58
HMLGERIKQIRKQKKMTQTDVATGIITKSMLSMIENGKATPSLPALQAIARRLQVTVEELML | -0.512
HMGTTLTKIPGIGENRARLLLRHFGSLRAVREADADALAAVKGMTRPAAEAIVRYFEQQDAEGRRD | 0.21
HMTSMTHLGRHPDSEISLDDISVSRRHAEIERQGHEYVLRDSGSLNGTYVNQQRVDSVVLQQGDEIL | 0.234
HMIMQTTSDRINQRMRDLGLQHKDLVAATGASKGTVTNWINGVNNPTGKRLVQLAQALKTTSSWLLTGN | -0.12
HMDTDWDVSGVTPDQYRLLFSVLGGLAGVKDVGLNPDGLRIIHTPEALPSIEKAFQANGLKLKRNVD | 0.035
HMIDELLDPTHRIMVRHPRVDYVSPGFLIGPDKDVILWGFTGGIIARLFDFLGWTRPWDQSHVQDLPPYML | -0.202
HMLPDSQLMKEATAWFMRQAADDFSGAERRRLDAWRAQSPAHARAYHQVQALWNAPELQQAAAR | -0.0227
HMINLDGIGEKISRLRKEQGVTIRELSEYTGYSVGFLSNLETGKNSPTVESLQRVAEALRTDIIEILTK | -0.312
HMATTIDFTVGDDVQVMNGPLESFTGKVTELNEASQKVKVDVVMFGRVTNVELDFVQVKKIT | 0.162
HMYGQEVKVLGLFGDRAFIKVDEKSAVIRIGQSHQNVQLKSISNQKAILLVDNKDIALGLGDSYQSA | -0.244
HMAMNITQRHQEILAVIKQEKHITVSEISKLLGVSEVTIRKDFNYLEEKNLIYRHHGGASLNN | -1.58

Sequence | soluble fraction (log2)
HMGGQKTREAIFDLIMTNSKITSAQIAEILGIHRSGVARHLKKLQEEGLIKREGPDNGGQWIVIK | -0.422
HMKKILITGNSGYIGSHLSKMLENDYEVHGLDIRQPQHPVAKFYEQDINRPINIEEEYDAVIHLAALV | -0.196
HMVDISLSDRELEVLRLLAMGLSNADISRRLYLSEGTIRNYMSGIFSKLNVSDRTQAVVIALREGLVNL | -0.48
HMNDPFVILGVSKDASQSEILEAYKQKRAYYQERVFDEGDEGAQAARMLTQLDDAYQQAMELSHES | -0.151
HMKFNEKQNEVRIAIMNFIIDNKRPFHMKQDGYDALEGITLSGRHEFQDILDVLHSRDGFSADEEGNINF | -1.51
HMDEFQLTPREQEILGLLVKGYTYKRIASELNLSYATVNRHVSNVYVKLRVHSVNEAVALAVRKGL | -0.997
HMKRNLVSVLDHIVGIGPKRRQSLRTHFGSLEKIKEASVEELAAAPGMNRTSAEAVRHFFDAQQELRGK | 0.537
HMQEHAHLWRLMEDNRSFKADYIAFENGIVLLQNLSSGKISQYPITDFSIEDQLLILKRHELTAHINAN | -3.09
HMSVKLMEVKGASTVVSRQVREAVSIVFPTSSMRLDLVALKARIEGVDAVKRADVYLRNGILEIQIDER | -1.99
HMHPDALTEREREVLSLLADGLSNREIAARLVLALGTVKWYISVIYSKLGVTRRTQAIARARELHLV | -0.0971
HMLTTVAAQRAALHQEEDITKLREIILKLVPFWGLDGGAYADKETSIQLERQYRESFDQAVSAARRSGQA | -0.303
HMWPDDAIALPTRDGQDVGGAQERTMLAFASGAAGIRTVEEINPDGSITRLRTRYGWPTFETEGARTAAAE | -0.109
HMGSPKLVIKNGQVDYQVLKKEKLDLLELTSLLRGQNTFSIREIEYAIIEPNGVITVIKKPEYQSVVKGDL | -0.239
HMPLDYQELRNISPQAARQAILQILKANKGNVSQTARMLGITRKTVYKAMAKREAGNLDDGSRAPK | -0.554
HMNDQLIYSDFIRQVQDGQITEVTISGLNIAGTRSDGSVFNTLRPYIEDPKLIDDLLSHNVRIQGAE | -0.2
HMFLPFFDNLRKAGVPVSLREFLGFLEGMKAGLATYDIDAFYFLARTTMVKDERNLDKFDRAFSATFKG | -0.563
HMNTAALSLQRRNEIKKWLLEEKTLTVAALSNRFNVTYETIRRDLEILEKEGFLKKVYGGAALNERV | -0.0358
HMEAYDTMEDRTTLAPGFAKLDKRERYILHLRFFEGLTQSQIAERVGISQMHVSRLIRRSLEKLREEIGD | -0.671
HMNDPNAPITENQLKAIHVLLDKLKVDDNLKHAYIADVLQLDNEPETLKTLTKAQGSMAIERMQLLKDN | 0.328
HMEVFGDTKEEQMIIDILKLGITDLEHLQAKSMLEPAIFSQTLTMLEISGKIRPLGAGHWTL | -1.04
HMLSLSDIINDVMERLTREKNLTFDELLGEKRERRRIVYTFLALLELIRLKMIKAYQTAAFGVIRIFPR | -0.898
HMEFTKSPLDEIAGVGPARKRALLAAFGTAKAVSQAALADLEKTPGVNAATARLVYAHFHEK | -0.143
HMANPMFAEIKKVQKQLNEMGYQAGPADGLWGNKTENAVKLLLSDNNLKWDGTFDQNEIKIIEEIFLSND | -0.256

Sequence | soluble fraction (log2)
HMAYRLDVRNQTKGTYLVIQKKYWDKEKKQSRTKHHMSLGYVHDLQKLYSDPITHYKEVINQMNAEEKG | -1.54
HMTYKHLTIDEMKRFLSTREDSQSALVQFARVENVVGNRKGKYAVIKKWFLKNYKEEYNAFLS | -0.17
HMPALPGNELLRNLMLEHGLKQVDLAEIGSQGVVSEILSGKRRINRRHADLLARRFSLPAELFSR | -0.133
HMGNHMSFKMWGEQLQEAFRALETYDTQKAKTILNELVRFPIDSDITKALKGIISNIDDMMA | -0.535
HMFEEPYLATYPVLIDPKLAFNVLDTMLEGLEVKMDQDEETGAISVLAPASIHTKITEYLDALSKQ | -0.159
HMDMDRRALLLALINDRYHASVAEFARAINKAPAQVHQWLSGNRALGNAGARDIEIRLNLAQGYFDH | -1.91
HMEITRDTVIQWLEAERRSQTWLSKQLGVSVQAVSNWLREKNPQTISASAQITIRALMEEDAAK | -0.42
HMKTTKLEELDMQKEFILKNGKYGFGVYIGGKYIGLTDIGTVNSFKDSLQLPVVSLSDIDFKTFAEKF | -0.757
HMLNDMYAVMEIRGQGGELIAKLINQDGSPFYVKKGTTLQSGHVIDEITTTYVRAEKAGAKDYLYF | -0.0846
HMSRVTVDVNPDVLQWAIDKKGKGDIKNKFPKIDEWLNGISKPTIHQLENFAKYVSVPFGYLLLSKPPVE | 0.276
HMEGEVVESPLVGVAYLASGPDKPAFVQVGDSVSKGQTLLIIEAMKVMNEVPAPRDGIVTEILV | 0.0266
HMSYPFSEDALKEKIREYLKHNRSINRKVLEAEFHIRKQTALNWLKKLEKSGFLIKEGSRNAPVYFLAE | -0.832
HMGAQINSPISGTILKYLVKNGDKITKDQPLVNIESMKMENTIKSDKEGIVNNINFKIGDSVNTADTLLTL | 0.0243
HMSKSKSEIDKDPHFWSSLFQRIGEGESLRKIAKDSKIPKSTLWAWIRNDPQLALRYSEAQQ | 0.064
HMSLLQDRQRHEALAALGYYRGSVSAAWGAASVEALKAAQAALGVEVDGKWGPKTEDVIQAALGT | -0.00704
HMKNIFDWLKQINYHKQPADSFTEKDWELFNSYMVHRFMSMNREFIEVVNYVQEMPPQEKILIYNIYREF | -1.02
HMELEIPGELIEAVRRLRDERQRMRLAGELAARQIQMHPERYTEASIDPVQTWDELRARILALA | -0.248
HMSNVKVYPNPTSGKLTIDAENYKGVEVYDTSGRLIVKSELRTIDLEEQSKGLYLLKVNANGTTQEFKVFK | 0.0145
HMQEERDISFIKIHLEPGHPWRGRALRELMPLKDLLIVMVVRGEDTIVPNGDTRLEEGDLLVLAAYPFEE | -0.436
HMEDNLMIVVQVNGKKRSEIKVSIDASEDQIKQTALAEPNVQKFVEGHTIRKMILVPSKLLNIVV | -0.0375
HMFPTLNEDEQTIVSALQKINDQPINTLSIHTALPIPRLTSLLFQLEIKGVIKQLAGGTYHVL | -0.427
HMDTNPKVIITMDGVNVRSSASTGSDILFIAEKGEEYELISESGDFYKILYEGNKEGYVASWLVETSE | 0.0987
HMLTWNQLGLITKPVVFLDGTGYYARLFEAFEHMISTGFVKENYRAMMNRATSVEEAVRIASSPAPKVD | -0.0676
